In patent US20230002458A1 (ALPHABETA, published 2023):
Changes are numbered by the printed parent chain. In names and notes the source's numbering stands. Blank lines part the entries; values can stand above or below the binder they belong to.

How the values were obtained:
[1] = molecular target: T1, rh wt Bri2 BRICHOS-mCherry oligomers (human, UniProt A5A6H8 113-231 (Pan troglodytes entry)); experiment: cell-based or functional assay
T1 sequence: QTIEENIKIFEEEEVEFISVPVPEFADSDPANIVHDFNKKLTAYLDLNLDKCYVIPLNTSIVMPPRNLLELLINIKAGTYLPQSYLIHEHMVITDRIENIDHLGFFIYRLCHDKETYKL

[2] = molecular target: the molecule itself; experiment: size exclusion chromatography, self-association

- release of wt monomers from oligomers after co-incubation [1]: ~2 molar ratio mutant:wt
B1: rh Bri2 BRICHOS R221E monomer (other)
chain: T1 sequence with R109E

B2: rh wt Bri2 BRICHOS (other)
chain: T1 sequence
notes: also called Bri2 BRICHOS [Bri2(113-231)]; wt protein
- binding result [2]: binds
